For test [1], the target named is T1, AMHRII on the COV434 AMHRII transfected cell line (~80,000 receptors) (human, UniProt Q16671 18-573).
T1 sequence: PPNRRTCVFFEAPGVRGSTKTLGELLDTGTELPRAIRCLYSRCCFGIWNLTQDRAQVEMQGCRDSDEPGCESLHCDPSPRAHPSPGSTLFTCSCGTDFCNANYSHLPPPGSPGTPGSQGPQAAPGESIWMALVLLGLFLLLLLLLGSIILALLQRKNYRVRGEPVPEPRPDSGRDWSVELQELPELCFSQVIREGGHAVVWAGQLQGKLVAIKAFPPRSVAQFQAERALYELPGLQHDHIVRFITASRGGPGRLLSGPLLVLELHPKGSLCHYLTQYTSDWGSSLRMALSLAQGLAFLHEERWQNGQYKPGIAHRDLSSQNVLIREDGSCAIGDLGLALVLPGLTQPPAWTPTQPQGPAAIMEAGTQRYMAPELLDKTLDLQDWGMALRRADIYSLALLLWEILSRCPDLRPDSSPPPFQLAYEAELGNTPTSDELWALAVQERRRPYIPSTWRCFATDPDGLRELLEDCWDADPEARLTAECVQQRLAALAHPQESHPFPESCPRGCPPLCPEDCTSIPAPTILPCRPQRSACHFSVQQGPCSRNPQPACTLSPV
Briefly: cell-based or functional assay.

Test [2] addresses T2, FcRn.
T2 construct: also called neonatal Fc receptor
Briefly: SPR ('Binding SPR (KD)' row FcRn); set-up not given.

The target of test [3] is T3, anti-Müllerian hormone type II receptor (AMHRII), immobilised on the SPR chip (human, UniProt Q16671 18-149, limits assumed).
T3 construct: also called AMHR2
Put plainly: SPR (Bia3000, 25°C), AMHRII covalently immobilised on a CM5 chip, ADC injected, Langmuir 1:1 fit (Example 3). The protocol:
All kinetic measurements are performed on a Bia3000 apparatus at 25° C. in PBS pH 7.4 containing 0.005% of P20 surfactant at 50 μl/min on control and AMHRII Flowcells. The antibody is injected during 180 s at concentrations given in the appendix. After a dissociation step of 400 s in running buffer, sensor surfaces are regenerated using one pulse of 15 μl of Gly-HCL pH1.7. All the sensorgrams are corrected by subtracting the low signal from the control reference surface and blank buffer. Kinetic parameters are evaluated from the sensorgrams using a Langmuir 1:1 model on the BiaEvaluation software 4.2.
For kinetic studies all the mAb and ADC are injected at various concentrations (0.7 nM-100 nM). The sensorgrams are evaluated by L1:1 fitting model (BiaEvaluation 4.2 software) starting of minimum 3 (n=3) separated experiments or fits to obtain average values for ka, kd and KD with standard deviation (SD). Several experiments are performed on the same AMHRII-coated surface after verification of the responses stability to 10 nM injection of 3C23K before and after the experiment series with each mAb/ADC. All results are obtained from two AMHRII-coated Flowcells.

B1: GM104 (antibody, human IgG1, kappa)
heavy: QVRLVQSGAEVKKPGASVKVSCKASGYTFTSYHIHWVRQAPGQRLEWMGWIYPGDDSTKYSQKFQGRVTITRDTSASTAYMELSSLRSEDTAVYYCTRGDRFAYWGQGTLVTVSSASTKGPSVFPLAPSSKSTSGGTAALGCLVKDYFPEPVTVSWNSGALTSGVHTFPAVLQSSGLYSLSSVVTVPSSSLGTQTYICNVNHKPSNTKVDKRVEPKSCDKTHTCPPCPAPELLGGPSCVFLFPPKPKDTLMISRTPEVTCVVVDVSHEDPEVKFNWYVDGVEVHNAKTKPREEQYNSTYRVVSVLTVLHQDWLNGKEYKCKVSNKALPAPIEKTISKAKGQPREPQVYTLPPSREEMTKNQVSLTCLVKGFYPSDIAVEWESNGQPENNYKTTPPVLDSDGSFFLYSKLTVDKSRWQQGNVFSCSVMHEALHNHYTQKSLSLSPGK
light: DIQMTQSPSTLSASVGDRVTITCRASSSVRYIAWYQQKPGKAPKLLTYPTSSLESGVPSRFSGSGSGTEFTLTISSLQPDDFATYYCLQWSSYPWTFGGGTKVEIKRTVAAPSVFIFPPSDEQLKSGTASVVCLLNNFYPREAKVQWKVDNALQSGNSQESVTEQDSKDSTYSLSSTLTLSKADYEKHKVYACEVTHQGLSSPVTKSFNRGEC
notes: also called GM104 ADC; ADC according to the invention
Broadly, the Kd is the constant that tells how readily two partners part at equilibrium. Read a low Kd as a tighter complex. Take B1: the “IC50, proliferation/viability of COV434 AMHRII transfected cells after 72 h (CellTiter Blue)” value in test [1] was determined as 0.22 nM. Besides, the results for the Kd in test [2] and in test [3] were 22 nM and 1.7 nM, respectively.

Values taken from US20230001006A1 (GAMAMABS PHARMA, published 2023).
